In patent EP3418383A1, “MODIFIED L-ASPARAGINASE” (XL-protein GmbH, priority 2017, dated 2018):

Tests used:
[1] = L-asparaginase aminohydrolase activity, Nessler reagent assay (Example 1); type: biochemical; conditions: for Enzyme activity compared to the equally assayed non-modified Crisantaspase: Nessler assay of Example 1
Description: The modified proteins were purified by anion exchange chromatography (AEX) on a MonoQ HR5/5 column (GE Healthcare) using 25 mM Na-borate pH 9.0, 1 mM EDTA as running buffer and a NaCl concentration gradient from 0 to 1 M to elute the proteins. L-asparaginase aminohydrolase activity of each Crisantaspase modified protein was determined by reaction of ammonia that is liberated via L-asparagine enzymatic activity with the Nessler reagent. Briefly, 50 µL of enzyme solution was mixed with 20 mM of L-asparagine in a 100 mM sodium borate buffer pH 8.6 containing 0.015 % (w/v) bovine serum albumin and incubated for 15 min at 37 °C. The reaction was stopped by addition of 200 µL of Nessler reagent (Sigma-Aldrich). Absorbance of this solution was measured at 450 nm. The activity was calculated from a calibration curve that was obtained from ammonium sulphate as reference. Table 2: Enzymatic activities of Crisantaspase conjugated with Pga-P/A(20)-Ahx peptide in different amounts

[2] = L-asparaginase enzyme activity, Nessler endpoint assay, specific activity (Example 8); type: biochemical; conditions: Crisantaspase expression system E. coli; for Nessler (Average): average of plates 1-3; for Nessler Plate 1 / Nessler Plate 2 / Nessler Plate 3: specific activity
Description: PASylated L-asparaginase enzyme activity was determined by catalysis of the conversion of L-asparagine into L-aspartic acid. This reaction liberates one mole of ammonia per mole of converted L-asparagine. The released ammonia is detected using Nessler's reagent. In the presence of Nessler's reagent the ammonia will form a watersoluble yellow complex that can be quantified by absorbance measurement at 450 nm (Mashburn et al. (1963) Biochem. Biophys. Res. Commun. 12, 50). One unit of L-asparaginase enzyme activity (International Unit or IU) is defined as the amount of enzyme that catalyzes the conversion of one µmol of L-asparagine per minute. The specific activity of the samples (IU/mg) is determined by dividing the value of L-asparaginase activity expressed in IU/mL by the protein concentration expressed in mg/mL. The mass of the protein monomer with the PASylated sequence was measured.
The measurement of L-asparaginase activity is based on an endpoint assay in which the sample is diluted to a series of final enzyme concentrations which are then incubated at 37°C under saturating L-asparagine concentration for 15 minutes. The reaction is stopped by addition of Nessler's reagent and the amount of ammonia produced by the reaction is extrapolated from a calibration curve constructed from known quantities of ammonium sulfate used as standard. A plot of enzyme concentration versus ammonia is then created for each sample and the slope of the curve divided by the reaction time to obtain the specific activity in IU/mg. Specific activity is reported as IU/mg and is reported to the nearest whole number.

[3] = Analytical gel filtration (SEC), hydrodynamic volume / apparent molecular size; type: physicochemical; conditions: tetramer, Superdex S200 10/300 GL, PBS, 1 mg/ml
Source text: In order to avoid polymerization of the peptides upon chemical activation of the C-terminus, the N-terminus was protected with pyroglutamyl (Pga) residue. Aminohexanoic acid (Ahx) was incorporated at the C-terminus of the peptides to serve as linker. […] The hydroxybenzotriazol (HOBt) active ester of the peptide is subsequently used to derivatize the amino groups (ε-amino groups of lysine residues or α-amino group of N-terminus) of Crisantaspase with the P/A peptide through formation of peptide or isopeptide bonds, while free HOBt is released. This coupling step is performed in aqueous solution (e.g. PBS buffer) with a content of organic solvent ≤ 30 %. […] The number of coupled P/A peptides can be determined by counting the bands in that ladder starting from the unconjugated Crisantaspase as marked on the right. […] Separation of remaining uncoupled peptide and other non-proteinous byproducts of the chemical conjugation devoid of UV absorption at 280 nm was monitored by the 225 nm UV trace. […]

[4] = Pharmacokinetics, plasma asparaginase activity after single IV bolus dose; type: in vivo; conditions: single IV bolus 25 IU/kg body weight, male CD-1 mice, non-compartmental
Description: The pharmacokinetic profile of E. coli expressed recombinant crisantaspase as a PASylated fusion protein (PA-200) or chemically conjugated to PA-peptides (PA-20) was characterized following administration of a single intravenous bolus dose to CD-1 mice. The CD-1 mice is a model for a healthy mouse.
All animals received a single intravenous (IV) bolus via the lateral tail vein (10 mL/kg) based on the body weight taken prior to dosing. Individual doses were calculated based upon the most recent individual body weights to provide the proper dose. The first day of dosing was based on study day 0 body weights.
PASylated asparaginase was administered as a single IV dose of 25 IU/kg body weight to mice. […] Asparaginase activity in mouse plasma was measured using a qualified biochemical assay as described in the previous examples. […]
Asparaginase activity was measured as the concentration of asparaginase in the plasma samples as previously described (Allas et al. (2009) Blood, 114, 2033). […] The plasma asparaginase activity versus time data were analyzed using non-compartmental methods with sparse sampling in an IV bolus administration model. Activity values below the limit of quantitation of the assay (10 U/L) were set to zero in the calculation of group means. […]

[5] = PEGylated enzyme compared to the unmodified L-asparaginase; cited from earlier work
[6] = children who received the drug; cited from earlier work
[7] = 3.5 mg PA peptide/mg Crisantaspase, 10.4 mol PA peptide/mol monomer
[8] = 5 mg PA peptide/mg Crisantaspase, 11.2 mol PA peptide/mol monomer
[9] = 7.5 mg PA peptide/mg Crisantaspase, 11.7 mol PA peptide/mol monomer
[10] = 10 mg PA peptide/mg Crisantaspase, 12.0 mol PA peptide/mol monomer

Pyroglutamoyl-P/A(20)-aminohexanoyl-Crisantaspase
Rel. activity [1, 7]: 94.1%
Specific activity [1, 7]: 508 ± 20 U/mg
Rel. activity [1, 8]: 80.7%
Specific activity [1, 8]: 436 ± 22 U/mg
Rel. activity [1, 9]: 74.3%
Specific activity [1, 9]: 401 ± 21 U/mg
Rel. activity [1, 10]: 47.4%
Specific activity [1, 10]: 256 ± 20 U/mg

Pyroglutamoyl-P/A(20)-aminohexanoyl-Crisantaspase [Crisantaspase/PA(20) modified protein]
Enzyme activity compared to the equally assayed non-modified Crisantaspase [1]: 91.2%
Nessler (Average) [2]: 676 IU/mg
Nessler Plate 1 [2]: 694 IU/mg
Nessler Plate 2 [2]: 732 IU/mg
Nessler Plate 3 [2]: 602 IU/mg
apparent molecular size [3]: 531 kDa
t½ [4]: 50.2 h

Pyroglutamoyl-P/A(40)-aminohexanoyl-Crisantaspase [Crisantaspase/PA(40) modified protein]
Enzyme activity compared to the equally assayed non-modified Crisantaspase [1]: 78.2%
Nessler (Average) [2]: 528 IU/mg
Nessler Plate 1 [2]: 567 IU/mg
Nessler Plate 2 [2]: 528 IU/mg
Nessler Plate 3 [2]: 490 IU/mg
apparent molecular size [3]: 820 kDa

B1: Oncaspar®: E. coli L-asparaginase modified at multiple lysine residues using 5 kDa mPEG-succinimidyl succinate (conjugate, UniProt P00805 23-348, looked up)
L-asparaginase 2: LPNITILATGGTIAGGGDSATKSNYTVGKVGVENLVNAVPQLKDIANVKGEQVVNIGSQDMNDNVWLTLAKKINTDCDKTDGFVITHGTDTMEETAYFLDLTVKCDKPVVMVGAMRPSTSMSADGPFNLYNAVVTAADKASANRGVLVVMNDTVLDGRDVTKTNTTDVATFKSVNYGPLGYIHNGKIDYQRTPARKHTSDTPFDVSKLNELPKVGIVYNYANASDLPAKALVDAGYDGIVSAGVGNGNLYKSVFDTLATAAKTGTAVVRSSRVPTGATTQDAEVDDAKYGFVASGTLNPQKARVLLQLALTQTKDPQQIQQIFNQY
modifications: 5 kDa mPEG succinimidyl succinate
notes: E. coli L-asparaginase modified at multiple lysine residues using 5 kDa mPEG-succinimidyl succinate
in vitro activity [5]: approximately 50%
children who had an allergic reaction [6]: 30-41%
